Laboratory results: patent publication US20040214771

Target: T1, recombinant purified full length SRF (pET-15b, histidine tag, expressed in BL21)
T1 chain: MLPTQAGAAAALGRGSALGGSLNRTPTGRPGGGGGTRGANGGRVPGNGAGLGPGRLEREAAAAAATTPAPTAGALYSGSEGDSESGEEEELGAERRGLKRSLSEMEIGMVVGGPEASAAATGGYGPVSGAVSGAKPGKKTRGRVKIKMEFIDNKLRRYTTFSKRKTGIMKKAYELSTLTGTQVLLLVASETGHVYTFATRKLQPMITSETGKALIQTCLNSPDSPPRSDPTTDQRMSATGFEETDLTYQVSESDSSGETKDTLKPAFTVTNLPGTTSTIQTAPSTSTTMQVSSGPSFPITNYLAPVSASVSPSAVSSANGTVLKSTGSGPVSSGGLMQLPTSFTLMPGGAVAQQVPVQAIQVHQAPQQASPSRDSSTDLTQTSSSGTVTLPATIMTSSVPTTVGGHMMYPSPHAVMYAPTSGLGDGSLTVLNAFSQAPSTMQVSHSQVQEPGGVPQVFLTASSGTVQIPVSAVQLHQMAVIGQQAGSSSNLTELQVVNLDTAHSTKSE

B1: active recombinant human caspase 3 (BD PharMingen) (protein)
chain: SGISLDNSYKMDYPEMGLCIIINNKNFHKSTGMTSRSGTDVDAANLRETFRNLKYEVRNKNDLTREEIVELMRDVSKEDHSKRSSFVCVLLSHGEEGIIFGTNGPVDLKKITNFFRGDRCRSLTGKPKLFIIQACRGTELDCGIETDSGVDDDMACHKIPVEADFLYAYSTAPGYYSWRNSKDGSWFIQSLCAMLKQYADKLEFMHILTRVNRKVATEFESFSFDATFHAKKQIPCIVSMLTKELYFYH
- in vitro cleavage of SRF, read by Western blot: Caspase 3 cleaved SRF in a time-dependent manner
